We go through eight molecules from publication PMC10965115.

Read-outs that look alike come from different tables or passages of the source.

What all share (assay): BLI
Assay [1] concerns the target IgG1 RUBY v9 #15 (human).
In assay [2] the target is IgG1 mAb (human).
The target in assay [3] is IgG1 LALA RUBY #10 (human).
In assay [4] the target is IgG2 mAb (human).
Assay [5] addresses IgG2 RUBY v9 #16 (human).
The next assay addresses IgG1 LALA mAb (human).
Assay [6] concerns the target IgG1 LALA RUBY v9 #2 (human).
The target in assay [7] is IgG1 RUBY v9 #15 (human). The source holds these as a separate data set.
The target in assay [8] is IgG1 mAb (human). This is another data set of the same source.
Assay [9] has as its target IgG2 mAb (human). This is another data set of the same source.
Assay [10] addresses IgG2 RUBY v9 #16 (human). This is another data set of the same source.

With “mFcγRIV (from UniProt A0A0B4J1G0) (receptor)”, the Kd in the assay with IgG1 RUBY v9 #15 (human) [1] was 0.04 µM; in the assay with IgG1 mAb (human) [2] it was 0.05 µM. The kon with IgG1 mAb (human) [2] is 400000 M⁻¹ s⁻¹.

In [3], “recombinant mouse FcRn (from UniProt Q61559) (receptor)” came in with a Kd of 0.07 µM, a koff of 0.007 s⁻¹ and a kon of 100000 M⁻¹ s⁻¹.

In the case of “recombinant human FcRn (from UniProt P55899) (receptor)”, the Kd in [3] came to 0.6 µM; with IgG2 mAb (human) [4], 0.6 µM; with IgG2 RUBY v9 #16 (human) [5], 1 µM; with IgG1 RUBY v9 #15 (human) [1] it was 0.6 µM; with IgG1 LALA mAb (human) it was 0.5 µM; with IgG1 mAb (human) [2], 0.5 µM. Further, the koff in [3] was 0.08 s⁻¹; with IgG2 mAb (human) [4], 0.1 s⁻¹; with IgG2 RUBY v9 #16 (human) [5], 0.2 s⁻¹; with IgG1 RUBY v9 #15 (human) [1], 0.08 s⁻¹; in the assay with IgG1 LALA mAb (human) it was 0.1 s⁻¹; in the assay with IgG1 mAb (human) [2], 0.05 s⁻¹. The kon in assay [3] was found to be 100000 M⁻¹ s⁻¹; in the assay with IgG2 mAb (human) [4], 200000 M⁻¹ s⁻¹; with IgG2 RUBY v9 #16 (human) [5] it was 200000 M⁻¹ s⁻¹; with IgG1 RUBY v9 #15 (human) [1], 100000 M⁻¹ s⁻¹; in the assay with IgG1 LALA mAb (human), 200000 M⁻¹ s⁻¹; in the assay with IgG1 mAb (human) [2], 100000 M⁻¹ s⁻¹.

For hFcγRI (from UniProt P12314) (receptor), the Kd in assay [6] was found to be 0.04 µM.

In the assay with IgG1 RUBY v9 #15 (human) [1], “hFcγRIIIa 176 V (from UniProt P08637) (receptor)” displayed a Kd of 0.03 µM, a koff of 0.03 s⁻¹ and a kon of 1e+06 M⁻¹ s⁻¹. Besides, in the assay with IgG1 mAb (human) [2], the Kd is 0.05 µM, the koff amounted to 0.03 s⁻¹ and the kon amounted to 600000 M⁻¹ s⁻¹.

Regarding “hFcγRIIa (from UniProt P12318) (receptor)”, the Kd in the assay with IgG1 mAb (human) [2] came to 0.3 µM.

B1: mFcγRI (receptor)
chain: EVVNATKAVITLQPPWVSIFQKENVTLWCEGPHLPGDSSTQWFINGTAVQISTPSYSIPEASFQDSGEYRCQIGSSMPSDPVQLQIHNDWLLLQASRRVLTEGEPLALRCHGWKNKLVYNVVFYRNGKSFQFSSDSEVAILKTNLSHSGIYHCSGTGRHRYTSAGVSITVKELFTTPVLRASVSSPFPEGSLVTLNCETNLLLQRPGLQLHFSFYVGSKILEYRNTSSEYHIARAEREDAGFYWCEVATEDSSVLKRSPELELQVLGPQSSAP
Take B1: in the assay with IgG1 RUBY v9 #15 (human) [7], the Kd is 0.04 µM, the koff was found to be 0.03 s⁻¹ and the kon was determined as 700000 M⁻¹ s⁻¹. Further, in the assay with IgG1 mAb (human) [8], the Kd stood at 0.04 µM, the koff was 0.02 s⁻¹ and the kon came out at 600000 M⁻¹ s⁻¹.

B2: mFcγRIII (receptor)
chain: ALPKAVVKLDPPWIQVLKEDMVTLMCEGTHNPGNSSTQWFHNGRSIRSQVQASYTFKATVNDSGEYRCQMEQTRLSDPVDLGVISDWLLLQTPQRVFLEGETITLRCHSWRNKLLNRISFFHNEKSVRYHHYKSNFSIPKANHSHSGDYYCKGSLGSTQHQSKPVTITVQDPATTSSISLVWYHT
In the case of B2, the Kd is 0.01 µM with IgG2 mAb (human) [9], 0.01 µM with IgG2 RUBY v9 #16 (human) [10], 0.01 µM with IgG1 RUBY v9 #15 (human) [7] and 0.02 µM in the assay with IgG1 mAb (human) [8]. For the same molecule, the koff with IgG2 mAb (human) [9] was 0.008 s⁻¹; in the assay with IgG2 RUBY v9 #16 (human) [10] it was 0.006 s⁻¹; with IgG1 RUBY v9 #15 (human) [7], 0.01 s⁻¹; in the assay with IgG1 mAb (human) [8] it was 0.006 s⁻¹. Moreover, the kon with IgG2 mAb (human) [9] came to 700000 M⁻¹ s⁻¹; with IgG2 RUBY v9 #16 (human) [10] it was 600000 M⁻¹ s⁻¹; with IgG1 RUBY v9 #15 (human) [7], 700000 M⁻¹ s⁻¹; with IgG1 mAb (human) [8], 400000 M⁻¹ s⁻¹.
